Laboratory results taken from US20090170766A1, “Chimeric Kunitz Domains and their Use” (BAYER HEALTHCARE AG, priority 2006, published 2009).
Like-named read-outs stand apart in the source and are kept apart here. Positions of bridges follow the written chain, without caps; N, C: chain ends. No end group written: not given here.

Experiments:
human plasmin [1] = target: T1, human plasmin (Homo sapiens, UniProt P00747); assay: Inhibition of plasmin, fluorogenic substrate assay; format: biochemical
T1 construct: enzymatic activities of trypsin, plasmin and plasma kallikrein; purchased Enzyme Research Hplas
Protocol: (§1) The inhibitory potency of TFPI mut3 on the enzymatic activities of trypsin, plasmin and plasma kallikrein were determined with the aid of fluorogenic substrates in biochemical assays in white 384-well microtitre plates. The assay buffer was composed of 50 mM Tris/Cl, pH 7.4, 100 mM NaCl, 5 mM CaCl2, 0.08% (w/v) BSA. The assay conditions were specifically as follows:
(§2) 10 μl of a serial dilution of TFPI mut3EA were introduced into each well and preincubated with 20 μl of enzyme at RT for 5 min. The reaction was then started by adding 20 μl of substrate to each. The measurement took place after 60-90 min in a Tecan reader with an excitation wavelength of 360 nm and an emission wavelength of 465 nm. Dose-activity plots and half-maximum inhibitory constants (IC50 values) were determined using GraphPad Prism software (version 4.02).

human plasma kallikrein [2] = target: T2, human plasma kallikrein (Homo sapiens, UniProt P03952); assay: Inhibition of plasma kallikrein, fluorogenic substrate assay; format: biochemical
T2 construct: purchased Calbiochem 420307
Protocol: as §1, §2

human trypsin [3] = assay: Inhibition of trypsin, fluorogenic substrate assay; format: biochemical
Protocol: as §1, §2

human trypsin [4] = target: T3, human trypsin (human, UniProt P07477)
human plasmin [5] = target: T4, human plasmin (human, UniProt P00747)
Target sequence in this assay (P00747 97-810 limits assumed): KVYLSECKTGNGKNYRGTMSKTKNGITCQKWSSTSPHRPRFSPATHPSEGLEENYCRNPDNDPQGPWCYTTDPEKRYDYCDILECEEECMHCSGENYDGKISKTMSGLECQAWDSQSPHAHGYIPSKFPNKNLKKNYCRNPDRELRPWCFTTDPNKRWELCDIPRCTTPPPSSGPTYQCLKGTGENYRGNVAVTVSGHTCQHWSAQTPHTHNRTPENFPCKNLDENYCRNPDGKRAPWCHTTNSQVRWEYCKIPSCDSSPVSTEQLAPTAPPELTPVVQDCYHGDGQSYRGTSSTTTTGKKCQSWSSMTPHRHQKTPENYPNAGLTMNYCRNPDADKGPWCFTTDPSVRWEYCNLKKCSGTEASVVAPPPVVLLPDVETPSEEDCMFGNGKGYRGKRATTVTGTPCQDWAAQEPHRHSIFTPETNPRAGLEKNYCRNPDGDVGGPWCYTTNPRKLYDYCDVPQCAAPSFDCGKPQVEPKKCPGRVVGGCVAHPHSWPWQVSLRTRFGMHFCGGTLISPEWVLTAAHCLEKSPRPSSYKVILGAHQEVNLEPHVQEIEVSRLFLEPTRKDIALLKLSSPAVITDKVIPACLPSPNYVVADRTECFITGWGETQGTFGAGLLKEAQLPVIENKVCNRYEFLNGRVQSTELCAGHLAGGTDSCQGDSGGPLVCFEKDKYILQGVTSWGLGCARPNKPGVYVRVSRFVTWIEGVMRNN

human plasma kallikrein [6] = target: T5, human plasma kallikrein (human, UniProt P03952)
human trypsin [7] = target: T3, human trypsin; assay: cell-based or functional assay
human plasmin [8] = target: T4, human plasmin; assay: cell-based or functional assay
human plasma kallikrein [9] = target: T5, human plasma kallikrein; assay: cell-based or functional assay

T2 sequence (P03952 391-638 limits assumed): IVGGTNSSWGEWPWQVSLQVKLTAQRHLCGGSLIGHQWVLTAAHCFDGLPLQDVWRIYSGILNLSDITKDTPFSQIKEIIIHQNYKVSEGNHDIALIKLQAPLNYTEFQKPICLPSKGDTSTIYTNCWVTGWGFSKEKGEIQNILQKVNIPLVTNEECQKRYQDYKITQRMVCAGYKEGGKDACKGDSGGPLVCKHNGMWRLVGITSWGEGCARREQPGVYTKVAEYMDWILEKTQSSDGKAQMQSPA
T2 sequence (P03952 20-390 partner limits assumed): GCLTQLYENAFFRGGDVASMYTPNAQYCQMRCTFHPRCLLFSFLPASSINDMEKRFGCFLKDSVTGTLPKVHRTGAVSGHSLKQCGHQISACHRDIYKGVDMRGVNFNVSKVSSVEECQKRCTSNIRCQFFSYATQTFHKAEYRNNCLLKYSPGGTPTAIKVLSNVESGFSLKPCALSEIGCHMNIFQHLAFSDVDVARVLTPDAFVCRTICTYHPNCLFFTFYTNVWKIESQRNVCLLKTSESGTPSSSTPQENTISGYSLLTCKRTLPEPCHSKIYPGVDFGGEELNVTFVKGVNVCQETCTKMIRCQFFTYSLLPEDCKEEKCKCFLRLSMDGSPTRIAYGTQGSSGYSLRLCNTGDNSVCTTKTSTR
T1 sequence (P00747 581-810 limits assumed): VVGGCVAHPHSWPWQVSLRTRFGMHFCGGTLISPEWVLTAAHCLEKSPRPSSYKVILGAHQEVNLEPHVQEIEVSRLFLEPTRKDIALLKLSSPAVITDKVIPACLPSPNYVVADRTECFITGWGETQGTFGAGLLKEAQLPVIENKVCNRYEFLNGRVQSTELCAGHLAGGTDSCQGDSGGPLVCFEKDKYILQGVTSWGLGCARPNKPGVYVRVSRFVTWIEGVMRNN
T1 sequence (P00747 97-580 partner limits assumed): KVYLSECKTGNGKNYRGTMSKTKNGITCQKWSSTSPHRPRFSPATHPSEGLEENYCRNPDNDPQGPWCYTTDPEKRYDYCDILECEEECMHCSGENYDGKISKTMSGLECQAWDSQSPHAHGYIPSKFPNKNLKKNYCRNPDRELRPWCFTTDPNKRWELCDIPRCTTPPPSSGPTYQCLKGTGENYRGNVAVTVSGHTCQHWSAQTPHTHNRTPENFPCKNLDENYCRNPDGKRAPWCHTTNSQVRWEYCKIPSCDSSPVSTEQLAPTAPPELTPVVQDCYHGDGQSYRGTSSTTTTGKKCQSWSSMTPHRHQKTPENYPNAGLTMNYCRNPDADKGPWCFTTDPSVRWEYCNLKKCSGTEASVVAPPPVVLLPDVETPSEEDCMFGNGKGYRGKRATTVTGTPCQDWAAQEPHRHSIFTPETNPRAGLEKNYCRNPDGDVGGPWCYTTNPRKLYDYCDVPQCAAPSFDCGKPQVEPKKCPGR

Molecule	IC50 (human plasmin [1])	IC50 (human plasma kallikrein [2])	Trypsin IC50 [nM], inhibition of enzymatic activity, fluorogenic substrate (human trypsin [4])	Plasmin IC50 [nM], inhibition of enzymatic activity, fluorogenic substrate (human plasmin [5])	Plasma kallikrein IC50 [nM], inhibition of enzymatic activity, fluorogenic substrate (human plasma kallikrein [6])	further results
MHSFCAFKAETGPCRAAHPRWFFNIFTRQCEEFIYGGCEGNQNRFESLEECKKMCTRD (disulfide 5-55, 14-38, 30-51) [SEQ ID NO: 4]	32 nM	3 nM	–	–	–	–
EAMHSFCAFKAVTGPCRAAMKRFWFNIFTRQCEEFIYGGCEGNQNRFESLEECKKMCTRD (disulfide 7-57, 16-40, 32-53) [SEQ ID NO: 31]	48 nM	75 nM	–	–	–	–
EAMHSFCAFKAVTGPCKARIIRFFFNIFTRQCEEFIYGGCEGNQNRFESLEECKKMCTRD (disulfide 7-57, 16-40, 32-53) [SEQ ID NO: 18]	47 nM	1.48 nM	–	–	–	–
EAMHSFCAFKASTGPCKARIIRFFFNIFTRQCEEFIYGGCEGNQNRFESLEECKKMCTRD (disulfide 7-57, 16-40, 32-53) [SEQ ID NO: 30]	56 nM	2.34 nM	–	–	–	–
MHSFCAFKADDGPCRAAMKRFFFNIFTRQCEEFIYGGCEGNQNRFESLEECKKMCTRD (disulfide 5-55, 14-38, 30-51) [SEQ ID NO: 7]	195 nM	11 nM	–	–	–	–
EAMHSFCAFKAYTGPCKAAIIRFFFNIFTRQCEEFIYGGCEGNQNRFESLEECKKMCTRD (disulfide 7-57, 16-40, 32-53) [SEQ ID NO: 26]	83 nM	194 nM	–	–	–	–
MHSFCAFKADDGPCKAIMKRFFFNIFTRQCEEFIYGGCEGNQNRFESLEECKKMCTRD (disulfide 5-55, 14-38, 30-51) [hTFPI D1, reference compound]	–	> 10 nM	–	–	–	–
MHSFCAFKADDGPCRAAHPRWWFNIFTRQCEEFIYGGCEGNQNRFESLEECKKMCTRD (disulfide 5-55, 14-38, 30-51) [SEQ ID NO: 8]	267 nM	1 nM	–	–	–	–
MHSFCAFKAETGPCRAAMKRFFFNIFTRQCEEFIYGGCEGNQNRFESLEECKKMCTRD (disulfide 5-55, 14-38, 30-51) [SEQ ID NO: 10]	27 nM	48 nM	–	–	–	–
EAMHSFCAFKAYTGPCRAAIIRFFFNIFTRQCEEFIYGGCEGNQNRFESLEECKKMCTRD (disulfide 7-57, 16-40, 32-53) [SEQ ID NO: 28]	77 nM	8 nM	–	–	–	–
MHSFCAFKADDGPCKAIMKRFWFNIFTRQCEEFIYGGCEGNQNRFESLEECKKMCTRD (disulfide 5-55, 14-38, 30-51) [SEQ ID NO: 9]	497 nM	> 10 nM	–	–	–	–
EAMHSFCAFKAYTGPCKARIIRFFFNIFTRQCEEFIYGGCEGNQNRFESLEECKKMCTRD (disulfide 7-57, 16-40, 32-53) [SEQ ID NO: 25]	52 nM	1.19 nM	–	–	–	–
EAMHSFCAFKAVTGPCRASFPRWFFNIFTRQCEEFIYGGCEGNQNRFESLEECKKMCTRD (disulfide 7-57, 16-40, 32-53) [SEQ ID NO: 29]	19 nM	16 nM	–	–	–	–
EAMHSFCAFKAETGPCRAAHPRWFFNIFTRQCEEFIYGGCEGNQNRFESLEECKKMCTRD (disulfide 7-57, 16-40, 32-53) [SEQ ID NO: 19]	30 nM	3 nM	–	–	–	–
SEQ ID NO: 5: hTFPI D1 variant: MSSFCAFKAETGPCRAAHPRWWFNIFTRQCEEFIYGGCEGNQNRFESLEECKKMCTRD	–	–	–	–	–	IC50 (human trypsin [3]): 8 nM; IC50 (human plasmin [1]; human plasmin, read-out: Plasmin IC50): 24 nM; IC50 (human plasma kallikrein [2]; human plasma kallikrein, read-out: Plasma kallikrein IC50): 3 nM
EAMHSFCAFKAETGPCRAAHPRWWFNIFTRQCEEFIYGGCEGNQNRFESLEECKKMCTRD (disulfide 7-57, 16-40, 32-53) [SEQ ID NO: 20]	24 nM	2 nM	–	–	–	–

Molecule	IC50 (human plasmin [1])	IC50 (human plasma kallikrein [2])	Trypsin IC50 [nM], inhibition of enzymatic activity, fluorogenic substrate (human trypsin [4])	Plasmin IC50 [nM], inhibition of enzymatic activity, fluorogenic substrate (human plasmin [5])	Plasma kallikrein IC50 [nM], inhibition of enzymatic activity, fluorogenic substrate (human plasma kallikrein [6])	further results
TFPI mut13EA (SEQ ID NO: 18) (designed binder) EAMHSFCAFKAVTGPCKARIIRFFFNIFTRQCEEFIYGGCEGNQNRFESLEECKKMCTRD	–	–	20 nM	47 nM	1480 nM	–
TFPI mut3EA (SEQ ID NO: 19) (designed binder, ends and bridges not checked; cysteine pairing not given here) EAMHSFCAFKAETGPCRAAHPRWFFNIFTRQCEEFIYGGCEGNQNRFESLEECKKMCTRD	–	–	5 nM	30 nM	3 nM	–
TFPI mut11EA (SEQ ID NO: 29) (designed binder) EAMHSFCAFKAVTGPCRASFPRWFFNIFTRQCEEFIYGGCEGNQNRFESLEECKKMCTRD	–	–	4 nM	19 nM	16 nM	–
TFPI mut4EA (SEQ ID NO: 20) (designed binder) EAMHSFCAFKAETGPCRAAHPRWWFNIFTRQCEEFIYGGCEGNQNRFESLEECKKMCTRD	–	–	7 nM	24 nM	2 nM	–
TFPI mut7EA (SEQ ID NO: 25) (designed binder) EAMHSFCAFKAYTGPCKARIIRFFFNIFTRQCEEFIYGGCEGNQNRFESLEECKKMCTRD	–	–	38 nM	52 nM	1190 nM	–
TFPI mut15EA (SEQ ID NO: 31) (designed binder) EAMHSFCAFKAVTGPCRAAMKRFWFNIFTRQCEEFIYGGCEGNQNRFESLEECKKMCTRD	–	–	1 nM	48 nM	75 nM	–
TFPI mut12EA (SEQ ID NO: 30) (designed binder) EAMHSFCAFKASTGPCKARIIRFFFNIFTRQCEEFIYGGCEGNQNRFESLEECKKMCTRD	–	–	21 nM	56 nM	2340 nM	–
TFPI mut8EA (SEQ ID NO: 26) (designed binder) EAMHSFCAFKAYTGPCKAAIIRFFFNIFTRQCEEFIYGGCEGNQNRFESLEECKKMCTRD	–	–	64 nM	83 nM	194 nM	–
TFPI mut10EA (SEQ ID NO: 28) (designed binder) EAMHSFCAFKAYTGPCRAAIIRFFFNIFTRQCEEFIYGGCEGNQNRFESLEECKKMCTRD	–	–	17 nM	77 nM	8 nM	–
TFPI mut4 (SEQ ID NO: 5) (designed binder) MHSFCAFKAETGPCRAAHPRWWFNIFTRQCEEFIYGGCEGNQNRFESLEECKKMCTRD	–	–	8 nM	24 nM	3 nM	–
TFPI mut5 (SEQ ID NO: 8) (designed binder) MHSFCAFKADDGPCRAAHPRWWFNIFTRQCEEFIYGGCEGNQNRFESLEECKKMCTRD	–	–	266 nM	267 nM	1 nM	–
TFPI mut6 (SEQ ID NO: 9) (designed binder) MHSFCAFKADDGPCKAIMKRFWFNIFTRQCEEFIYGGCEGNQNRFESLEECKKMCTRD	–	–	36 nM	497 nM	> 10000 nM	–
TFPI mut3 (SEQ ID NO: 4) (designed binder) MHSFCAFKAETGPCRAAHPRWFFNIFTRQCEEFIYGGCEGNQNRFESLEECKKMCTRD	–	–	5 nM	32 nM	3 nM	–
TFPI random (SEQ ID NO: 10) (designed binder) MHSFCAFKAETGPCRAAMKRFFFNIFTRQCEEFIYGGCEGNQNRFESLEECKKMCTRD	–	–	6 nM	27 nM	48 nM	–
TFPI mut2 (SEQ ID NO: 7) (designed binder) MHSFCAFKADDGPCRAAMKRFFFNIFTRQCEEFIYGGCEGNQNRFESLEECKKMCTRD	–	–	19 nM	195 nM	11 nM	–
human tissue factor pathway inhibitor 1 Kunitz domain 1 (hTFPI D1) (other) MHSFCAFKADDGPCKAIMKRFFFNIFTRQCEEFIYGGCEGNQNRFESLEECKKMCTRD	–	–	–	–	–	Trypsin IC50 [nM], inhibition of enzymatic activity, fluorogenic substrate (human trypsin [7]): 44 nM; Plasmin IC50 [nM], inhibition of enzymatic activity, fluorogenic substrate (human plasmin [8]): 559 nM; Plasma kallikrein IC50 [nM], inhibition of enzymatic activity, fluorogenic substrate (human plasma kallikrein [9]): > 10000 nM
